The values that follow come from publication PMC11044841 (2024).

The target in the experiment is GST-NTF2L (GST-tagged NTF2-like domain of G3BP1) (human). The experiment can be described thus: SPR. (In general: SPR reads the build-up and loss of mass on a sensor chip optically.)
GST-NTF2L (GST-tagged NTF2-like domain of G3BP1) (human), sequence (chain, as listed by the source): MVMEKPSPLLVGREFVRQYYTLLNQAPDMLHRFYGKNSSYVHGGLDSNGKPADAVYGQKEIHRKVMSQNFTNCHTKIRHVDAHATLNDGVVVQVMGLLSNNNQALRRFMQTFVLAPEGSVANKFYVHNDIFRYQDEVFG

A word on the Kd: it is the free concentration of one partner at which half of the binding sites on the other are occupied at equilibrium, for simple one-to-one binding. A low value points to a tighter complex. As to LTFGDFDEHEVDALASGITFGDFDD [SFV nsP3 (449–473) peptide], the affinity, expressed as Kd, was 2500 nM. As for MALHSPQYIFGDFSPDEFNQFFVTP [USP10 (1–25) peptide], binding was put at a Kd of 110 nM.
